# Data as given in patent US20260022171A1.
# How the values were obtained:
# [1] = target: cynomolgus monkey CD200R1 on cells (cynomolgus monkey); test: flow cytometry, biotinylated antibody on cynomolgus monkey CD4+ T cells (PBMC), streptavidin-PE, MFI; monkey #143
# [2] = target: cynomolgus monkey CD200R1 on cells (cynomolgus monkey); test: cell-surface binding, cynomolgus CD4+ T cells
# [3] = target: cynomolgus monkey CD200R1 on cells (cynomolgus monkey); test: cell-surface blocking, MfCD200-Fc on K562 cells expressing MfCD200R1
# [4] = target: cynomolgus monkey CD200R1 on cells (cynomolgus monkey); test: flow cytometry, biotinylated antibody on cynomolgus monkey CD4+ T cells (PBMC), streptavidin-PE, MFI; monkey #0023
# [5] = target: cynomolgus monkey CD200R1 on cells (cynomolgus monkey); test: flow cytometry on cynomolgus monkey CD4+ T cells
# [6] = target: cynomolgus monkey CD200R1 on cells (cynomolgus monkey); test: flow cytometry, biotinylated antibody on cynomolgus monkey CD4+ T cells (PBMC), streptavidin-PE, MFI; monkey #0013
# [7] = target: human CD200R1 on cells (human) (UniProt Q8TD46); test: cell-based or functional assay
# [8] = target: human CD200R1 on cells (human) (UniProt Q8TD46); test: flow cytometry, biotinylated antibody on human CD4+ T cells (pan T cells of a healthy donor), streptavidin-PE, geometric mean; unit from the axis Log M
# [9] = target: human CD200R1 on cells (human) (UniProt Q8TD46); test: flow cytometry, biotinylated antibody on human CD8+ T cells (pan T cells of a healthy donor), streptavidin-PE, geometric mean; unit from the axis log M
# [10] = target: human CD200R1 on cells (human) (UniProt Q8TD46); test: flow cytometry, blocking: U937 cells stably expressing hu-CD200R1 incubated with the antibody, then with 55 nM huCD200-Fc-Flag, detected with anti-Flag PE (MFI)
EC50 (read off the curve) [1] [nM],EC50 [2] [nM],IC50 [3] [nM],EC50 (read off the curve) [4] [nM],EC50 [5] [nM],EC50 (read off the curve) [6] [nM],Binder,"pDok2 induction, western blot, U937 cells expressing CD200R1 [7] [nM]",EC50 [8] [nM],EC50 [9] [nM],IC50 [10] [nM]
1,1.3,0.5,0.9,0.34 to 1.54,1,"h10F6.V1 (antibody, IgG1, V domains shown) VH: EVQLQESGPGLVKPSETLSLTCTVSGFSLTNYRVSWVRQPPGKGLEWLGVMYAGGGTNYNSVFKSRLTISKDNSKNQVSLKLSSVTAADTAVYYCARERPLTGVMDNWGQGTLVTVSS VL: DIVLTQSPDSLAVSLGERATINCRASESVDYSGNSFMHWFQQKPGQPPKLLIYRASNLESGIPDRFSGSGSRTDFTLTISSLQAEDVAVYYCHQSNWDPPTFGGGTKVEIKR",–,–,–,–
–,–,–,–,–,–,"h22.1 (humanized 22.1 IgG) (antibody, V domains shown) VH: EVQLVQSGAEVKKPGASVKVSCKASGYTFTSYVMFWVRQAPGQRLEWIGYINPYNDDTKYNEKFKGRATLTSDKSASTAYMELSSLRSEDTAVYYCAREDYYGSRFVYWGQGTLVTVSS VL: DIQLTQSPSSLSASVGDRVTITCRASKSVSTSGYSYMHWYQQKPGKPPKLLIYLASNLESGVPSRFSGSGSGTDFTLTISSLQPEDFATYYCQHNRELLTFGGGTKVEIKR",5.6,3.04,1.91,1.8
